Test results taken from US20240059773A1 (PALLEON PHARMACEUTICALS, published 2024).

Columns and labels:
[1] = target: T1, recombinant human PD-1 (hPD-1) (human, UniProt Q15116 25-167, limits assumed); assay: BLI (ForteBio Octet); ASC captured on AHC biosensor, hPD-1 titrated from 100 nM in a 2x series; 1:1 fit
Method: ASCs were captured on an AHC (Anti-human IgG-Capture) biosensor. hPD-1 analytes were titrated from 100 nM in a 2× series dilution. The signal was subtracted with buffer reference and aligned to baseline. KD, Kon and Koff values were generated using a 1:1 fitting model.

[2] = target: T1, recombinant human PD-1 (hPD-1); assay: competition ELISA: antibody titrated 3x and mixed with biotinylated hPD-L1-Fc (1 ug/mL), loaded on hPD-1-coated wells; residual hPD-L1-Fc detected with streptavidin-HRP, A450
Source text: The plate was developed with TMB and Stop buffer and the absorbance at 450 nm was read using a SpectraMax plate reader. A450 absorbance curves and IC50S were generated using GraphPad Prism software.

[3] = target: human PD-1 expressed on Jurkat T cells (human, UniProt Q15116 25-288); assay: cell-based or functional assay
human PD-1 expressed on Jurkat T cells, sequence (Q15116 25-288): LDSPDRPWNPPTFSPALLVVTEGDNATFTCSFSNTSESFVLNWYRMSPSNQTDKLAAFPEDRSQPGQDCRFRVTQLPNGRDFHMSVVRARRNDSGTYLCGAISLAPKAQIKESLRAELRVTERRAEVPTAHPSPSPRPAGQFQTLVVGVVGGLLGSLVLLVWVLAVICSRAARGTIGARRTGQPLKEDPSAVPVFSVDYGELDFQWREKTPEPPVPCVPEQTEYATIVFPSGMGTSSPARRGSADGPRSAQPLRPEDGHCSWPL

T1 sequence (Q15116 25-167 limits assumed): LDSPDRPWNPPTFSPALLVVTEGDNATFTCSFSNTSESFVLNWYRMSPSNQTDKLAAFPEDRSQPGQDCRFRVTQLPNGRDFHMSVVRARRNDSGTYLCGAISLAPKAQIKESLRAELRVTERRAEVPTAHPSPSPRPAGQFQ

B1: ASC #3 (Janus anti-PD-1 antibody sialidase conjugate) (antibody, human IgG1, kappa, N297A)
light: EIVLTQSPATLSLSPGERATLSCRASKGVSTSGYSYLHWYQQKPGQAPRLLIYLASYLESGVPARFSGSGSGTDFTLTISSLEPEDFAVYYCQHSRDLPLTFGGGTKVEIKRTVAAPSVFIFPPSDEQLKSGTASVVCLLNNFYPREAKVQWKVDNALQSGNSQESVTEQDSKDSTYSLSSTLTLSKADYEKHKVYACEVTHQGLSSPVTKSFNRGEC
heavy: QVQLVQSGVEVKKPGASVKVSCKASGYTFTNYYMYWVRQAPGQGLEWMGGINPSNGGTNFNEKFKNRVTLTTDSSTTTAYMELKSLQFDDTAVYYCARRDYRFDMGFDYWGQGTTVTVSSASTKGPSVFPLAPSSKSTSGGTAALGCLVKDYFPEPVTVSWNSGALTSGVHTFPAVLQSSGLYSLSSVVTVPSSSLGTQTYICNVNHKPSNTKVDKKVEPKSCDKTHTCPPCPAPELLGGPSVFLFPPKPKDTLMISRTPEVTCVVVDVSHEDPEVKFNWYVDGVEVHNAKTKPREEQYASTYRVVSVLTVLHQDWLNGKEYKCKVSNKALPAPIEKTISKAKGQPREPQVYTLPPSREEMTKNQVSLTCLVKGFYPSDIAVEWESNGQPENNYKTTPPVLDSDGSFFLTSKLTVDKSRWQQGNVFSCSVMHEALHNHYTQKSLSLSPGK
chain: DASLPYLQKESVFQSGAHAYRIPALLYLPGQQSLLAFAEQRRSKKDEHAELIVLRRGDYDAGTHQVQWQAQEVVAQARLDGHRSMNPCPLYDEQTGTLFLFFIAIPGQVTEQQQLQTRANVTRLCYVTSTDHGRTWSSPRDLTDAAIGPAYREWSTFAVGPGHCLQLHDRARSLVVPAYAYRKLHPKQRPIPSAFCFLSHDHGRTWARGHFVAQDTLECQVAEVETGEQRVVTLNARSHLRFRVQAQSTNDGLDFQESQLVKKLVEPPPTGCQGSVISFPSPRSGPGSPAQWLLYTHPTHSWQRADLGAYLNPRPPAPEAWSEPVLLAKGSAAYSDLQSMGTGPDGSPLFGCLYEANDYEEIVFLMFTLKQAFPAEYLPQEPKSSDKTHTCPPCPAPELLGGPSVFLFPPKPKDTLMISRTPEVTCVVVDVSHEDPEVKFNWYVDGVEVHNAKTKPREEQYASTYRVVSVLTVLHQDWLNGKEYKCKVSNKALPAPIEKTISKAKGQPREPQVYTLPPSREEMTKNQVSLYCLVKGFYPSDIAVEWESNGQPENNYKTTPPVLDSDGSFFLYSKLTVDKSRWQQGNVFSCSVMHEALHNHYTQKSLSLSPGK
notes: Janus format: one antibody arm (one heavy and one light chain) and one sialidase-Fc fusion, heterodimerised by knob (T366Y) and hole (Y407T) mutations; also called ASC #3-1; ASC #3-2
Kd [1]: 10.3 nM
IC50 (read off the curve) [2]: ~7 nM
EC50 (nM), fold induction of NFAT-driven luciferase [3]: 7.23 nM
